In the RNAGym collection of RNA variant scans (doi:10.1073/pnas.2313332121):
This sample holds only a part of the variants without activity.

B1: TPR 5TU (parent)
chain: GGAUCUUCUCGAUCUAACAAAAAAGACAAAUCUGCCACAAAGCUUGAGAGCAUCUUCGGAUGCAGAGGCGGCAGCCUUCGGUGGCGCGAUAGCGCCAACGUUCUCAACUAUGACACGCAAAACGCGUGCUCCGUUGAAUGGAGUUUAUCAUG

Variants of: B1
Experiment: polymerase ribozyme fitness, log enrichment relative to wild type (log ratio); higher = more active; in vitro selection for triplet polymerase activity
Procedure, shortened: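 To select mutant libraries of each subunit of a heterodimeric triplet polymerase ribozyme, built by PCR and transcribed, each was annealed with a biotinylated primer, partner subunit and triplets, then incubated frozen at −7 °C. Extended constructs were gel-excised, captured on streptavidin beads and amplified by RT-PCR, in one round carried out in triplicate. Illumina sequencing of input and output libraries kept genotypes with ≥10 input reads and ≥1 read per output. Fitness is the base-2 logarithm of genotype enrichment relative to wild-type enrichment, from inverse-variance-weighted replicate averages.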

Row | Variant | polymerase ribozyme fitness (log ratio)
1 | U56A C103U | -0.0268
2 | G11A G94U A113C C114U A122C G143U C149U | ≤ -4.2
3 | A40G U45A U56A A60G G71C C118G | ≤ -4.2
4 | C57A C114U | -1.45
5 | C38U U53A C105U | 0.169
6 | C36G G83U C125A G141C U145A | -4.09
7 | G25C A52C G58C G59C A138U | ≤ -4.2
8 | A37U C75U G83A A98U | -2.88
9 | C18G A19U G42C G50C U90G G92U | ≤ -4.2
10 | G59C C93U C116U U135G | -3.78
11 | A20G C27G G65U G81A G88A A138C G143U | ≤ -4.2
12 | U7G A20C A40C G48U A64U A89U G92U U101C C132A | ≤ -4.2
13 | G42C C54G A91U G124A C131G | ≤ -4.2
14 | C10U C51G A52U C87A C123U G141C | ≤ -4.2
15 | G141U A142C | -3.58
16 | A20U G59U G136C G141U | -3.78
17 | G71A C87A G92C | -3.04
18 | C75U G84U U148A | ≤ -4.2
19 | A39C A52G | -2.32
20 | C14G C75U G94C A122U G124A | -3.86
21 | U31A A73C | -4.13

Row | Variant | polymerase ribozyme fitness (log ratio)
22 | C57G A91G G100A C123A C131A | ≤ -4.2
23 | U15G C57A G86U A122G | -1.4
24 | G83A U151A | -3.69
25 | C93U U144G | -0.253
26 | A12G C85A C118A G136U | -3.83
27 | U15G C85U C87A | ≤ -4.2
28 | U61A C63U G133U | ≤ -4.2
29 | C5U A22U C27G C36G G83U C103G C116U G136U | ≤ -4.2
30 | C27U C63G C95U C96U C99G | -3.33
31 | C57U G70A G83C U139G | ≤ -4.2
32 | G84U C93A U101C A107G G133U G141C | ≤ -4.2
33 | A28C A30U G86A | ≤ -4.2
34 | U82G C99G | -0.787
35 | C8A A16C C18G A49C C95U A98G A142U | ≤ -4.2
36 | A52G A60C | -1.96
37 | A19U A40G U101G | -3.45
38 | C57G C96A | -0.472
39 | G48A G80C G94A C96U C99G | -3.97
40 | A66G C96A A98G G136U | ≤ -4.2
41 | U6C A47C C85A | -3.96
42 | G46C C96U A98U A106G | -0.573

Row | Variant | polymerase ribozyme fitness (log ratio)
43 | A66C G70A G71A G100U G143A U148G | ≤ -4.2
44 | A49C C93A | ≤ -4.2
45 | A52U U53G U61A A91G U130G U144G | ≤ -4.2
46 | A20C G50U G81C C103U A120U | -2
47 | G92A A113C | -4.16
48 | A64U U148G | ≤ -4.2
49 | A41C U53C G81C C114A A115U C123G | ≤ -4.2
50 | U9C A22C C96G C99G G128U | ≤ -4.2
51 | G70A A97G | -3.26
52 | A22C A41C A49C U53A G67U G117A C131A | ≤ -4.2
53 | U6G U55G G92A | -3.71
54 | U104G U134G G143A | -3.69
55 | A22C A39C | -2.49
56 | G50A G58C C76U C85G G141U | -4.1
57 | A22C U56A C57G G86U A142G | -3.37
58 | A60G C96G | -0.394
59 | U56A G71U C125G | -3.78
60 | G46A C96U U101A | -2.59
61 | U7A U53A U56A | ≤ -4.2
62 | G50U G65C A66C C96G | ≤ -4.2
63 | G34C U55G G65A | ≤ -4.2

Row | Variant | polymerase ribozyme fitness (log ratio)
64 | A16G C36U A49C G88A C93G A107U G140U G143C | ≤ -4.2
65 | C5G A19G A29C A39C U145C | ≤ -4.2
66 | C76A C96U G140U | -3.67
67 | A47U A64G G67A | ≤ -4.2
68 | U82A G92U | -0.55
69 | A89C C93G C96U U148G | ≤ -4.2
70 | U6G G11A G48U G50U A66G U90A G100U U102A A122C | ≤ -4.2
71 | C57A G136A | 0.714
72 | U4A A20G C35A U55G C72U C99U A120U U146A | ≤ -4.2
73 | C5U C96U | 0.36
74 | C96U A142G | -1.18
75 | A39U C54U U61A C93U A106U | ≤ -4.2
76 | G50A U56A | -1.5
77 | C72A G140U | ≤ -4.2
78 | G100U U101G | -3.34
79 | U53A G58C | -1.52
80 | C54G C114U G143C | -4.16
81 | A20G G59A | -0.551
82 | C5A G136A | 0.816
83 | A60G | 0.0111
84 | A40C U148A | -3.51
